Numbering of substitutions follows the chain as printed.
B1: rec0266-0000-0010-VH_D95A (antibody, mouse IgG1, V domains shown)
VH: DVKLVESGGGLVKPGGSLKLSCVASGFTFSSYTMSWVRQTPEKRLEWVATISGGGSHIYYADSVKGRFTISRDNAKNTLYLQMSSLKSEDTAIYYCTRAGRDGSWFAYWGQGTLVTVSA
VL: DIVMTQSPATLSVTPGDRVSLSCRTSQSIGDYLHWYQQKSHESPRLLIKYVSQSISGIPSRFSGSGSGSDFTLSINSVESEDVGVYYCQNSHSFPLTFGSGTKLELKR
B2: rec0266-0000-0010-VH_D95E (antibody, mouse IgG1, V domains shown)
VH: B1 VH with A99E
VL: B1 VL
B3: rec0266-0000-0010-VH_D95F (antibody, mouse IgG1, V domains shown)
VH: B1 VH with A99F
VL: B1 VL
B4: rec0266-0000-0010-VH_D95G (antibody, mouse IgG1, V domains shown)
VH: B1 VH with A99G
VL: B1 VL
B5: rec0266-0000-0010-VH_D95H (antibody, mouse IgG1, V domains shown)
VH: B1 VH with A99H
VL: B1 VL
B6: rec0266-0000-0010-VH_D95I (antibody, mouse IgG1, V domains shown)
VH: B1 VH with A99I
VL: B1 VL
B7: rec0266-0000-0010-VH_D95K (antibody, mouse IgG1, V domains shown)
VH: B1 VH with A99K
VL: B1 VL
B8: rec0266-0000-0010-VH_D95L (antibody, mouse IgG1, V domains shown)
VH: B1 VH with A99L
VL: B1 VL
B9: rec0266-0000-0010-VH_D95P (antibody, mouse IgG1, V domains shown)
VH: B1 VH with A99P
VL: B1 VL
B10: rec0266-0000-0010-VH_D95R (antibody, mouse IgG1, V domains shown)
VH: B1 VH with A99R
VL: B1 VL
B11: rec0266-0000-0010-VH_D95S (antibody, mouse IgG1, V domains shown)
VH: B1 VH with A99S
VL: B1 VL
B12: rec0266-0000-0010-VH_D95T (antibody, mouse IgG1, V domains shown)
VH: B1 VH with A99T
VL: B1 VL
B13: rec0266-0000-0010-VH_D95V (antibody, mouse IgG1, V domains shown)
VH: B1 VH with A99V
VL: B1 VL
B14: rec0266-0000-0010-VH_D95Y (antibody, mouse IgG1, V domains shown)
VH: B1 VH with A99Y
VL: B1 VL
B15: rec0266-0000-0010-VH_D98A (antibody, mouse IgG1, V domains shown)
VH: B1 VH with A99D, D102A
VL: B1 VL
B16: rec0266-0000-0010-VH_D98E (antibody, mouse IgG1, V domains shown)
VH: B1 VH with A99D, D102E
VL: B1 VL
B17: rec0266-0000-0010-VH_D98F (antibody, mouse IgG1, V domains shown)
VH: B1 VH with A99D, D102F
VL: B1 VL
B18: rec0266-0000-0010-VH_D98G (antibody, mouse IgG1, V domains shown)
VH: B1 VH with A99D, D102G
VL: B1 VL
B19: rec0266-0000-0010-VH_D98H (antibody, mouse IgG1, V domains shown)
VH: B1 VH with A99D, D102H
VL: B1 VL
B20: rec0266-0000-0010-VH_D98I (antibody, mouse IgG1, V domains shown)
VH: B1 VH with A99D, D102I
VL: B1 VL
B21: rec0266-0000-0010-VH_D98K (antibody, mouse IgG1, V domains shown)
VH: B1 VH with A99D, D102K
VL: B1 VL
B22: rec0266-0000-0010-VH_D98L (antibody, mouse IgG1, V domains shown)
VH: B1 VH with A99D, D102L
VL: B1 VL
B23: rec0266-0000-0010-VH_D98P (antibody, mouse IgG1, V domains shown)
VH: B1 VH with A99D, D102P
VL: B1 VL
B24: rec0266-0000-0010-VH_D98R (antibody, mouse IgG1, V domains shown)
VH: B1 VH with A99D, D102R
VL: B1 VL
B25: rec0266-0000-0010-VH_D98S (antibody, mouse IgG1, V domains shown)
VH: B1 VH with A99D, D102S
VL: B1 VL
B26: rec0266-0000-0010-VH_D98T (antibody, mouse IgG1, V domains shown)
VH: B1 VH with A99D, D102T
VL: B1 VL
B27: rec0266-0000-0010-VH_D98V (antibody, mouse IgG1, V domains shown)
VH: B1 VH with A99D, D102V
VL: B1 VL
B28: rec0266-0000-0010-VH_D98Y (antibody, mouse IgG1, V domains shown)
VH: B1 VH with A99D, D102Y
VL: B1 VL
B29: rec0266-0000-0010-VH_G96A (antibody, mouse IgG1, V domains shown)
VH: B1 VH with A99D, G100A
VL: B1 VL
B30: rec0266-0000-0010-VH_G96E (antibody, mouse IgG1, V domains shown)
VH: B1 VH with A99D, G100E
VL: B1 VL
B31: rec0266-0000-0010-VH_G96F (antibody, mouse IgG1, V domains shown)
VH: B1 VH with A99D, G100F
VL: B1 VL
B32: rec0266-0000-0010-VH_G96H (antibody, mouse IgG1, V domains shown)
VH: B1 VH with A99D, G100H
VL: B1 VL
B33: rec0266-0000-0010-VH_G96I (antibody, mouse IgG1, V domains shown)
VH: B1 VH with A99D, G100I
VL: B1 VL
B34: rec0266-0000-0010-VH_G96K (antibody, mouse IgG1, V domains shown)
VH: B1 VH with A99D, G100K
VL: B1 VL
B35: rec0266-0000-0010-VH_G96L (antibody, mouse IgG1, V domains shown)
VH: B1 VH with A99D, G100L
VL: B1 VL
B36: rec0266-0000-0010-VH_G96N (antibody, mouse IgG1, V domains shown)
VH: B1 VH with A99D, G100N
VL: B1 VL
B37: rec0266-0000-0010-VH_G96P (antibody, mouse IgG1, V domains shown)
VH: B1 VH with A99D, G100P
VL: B1 VL
B38: rec0266-0000-0010-VH_G96R (antibody, mouse IgG1, V domains shown)
VH: B1 VH with A99D, G100R
VL: B1 VL
B39: rec0266-0000-0010-VH_G96S (antibody, mouse IgG1, V domains shown)
VH: B1 VH with A99D, G100S
VL: B1 VL
B40: rec0266-0000-0010-VH_G96T (antibody, mouse IgG1, V domains shown)
VH: B1 VH with A99D, G100T
VL: B1 VL
B41: rec0266-0000-0010-VH_G96V (antibody, mouse IgG1, V domains shown)
VH: B1 VH with A99D, G100V
VL: B1 VL
B42: rec0266-0000-0010-VH_G96Y (antibody, mouse IgG1, V domains shown)
VH: B1 VH with A99D, G100Y
VL: B1 VL
B43: rec0266-0000-0010-VH_G99A (antibody, mouse IgG1, V domains shown)
VH: B1 VH with A99D, G103A
VL: B1 VL
B44: rec0266-0000-0010-VH_G99E (antibody, mouse IgG1, V domains shown)
VH: B1 VH with A99D, G103E
VL: B1 VL
B45: rec0266-0000-0010-VH_G99F (antibody, mouse IgG1, V domains shown)
VH: B1 VH with A99D, G103F
VL: B1 VL

Each binder was assayed against T1, recombinant human sc-uPA (human, UniProt P00749 21-431) (assay: SPR, mAb immobilised).
T1 construct: 411 amino acid single-chain zymogen expressed in HEK293; the 20-residue signal peptide is not present in the mature protein; also called human single-chain uPA; pro-uPA
Experimental: The binding affinity to recombinant human sc-uPA protein (SEQ ID NO:1) was measured by surface plasmon resonance (SPR).
The experiments were performed on a Biacore™ instrument (GE Healthcare) and analysed with the BIAcore 4000 Evaluation Software. Anti-human uPA mAb variants were directly immobilized at 150-600 RU on flow cells of a CM5 sensor chip (GE Healthcare; cat. # BR-1000-12) via amine coupling, respectively. Recombinant human sc-uPA was diluted in HBS-N (GE Healthcare Cat BR-1006-70) with 1% BSA buffer with a dilution factor 3× ranging 1000-0.13 nM. Recombinant human sc-uPA was injected for 60 s, followed by a 600 s dissociation phase. Binding curves were measured at 25° C. with a flow rate of 30 μL/min. Regeneration of the chip surface was performed with pH1.5 Glycine for 25 s at 30 μl/min. Determination of the kinetic parameters was performed by fitting with a 1:1 binding model. Binding affinities were calculated and are stated in Table 17 below.
B1 was tested, and the Kd was 2.6 nM. B2 showed a Kd of 2 nM. Binder B3 has a Kd of 12 nM. B4 showed a Kd of 12 nM. B5 showed a Kd of 6.5 nM. In the case of B6, the Kd is reported as 1.4 nM. B7 showed a Kd of 12 nM. In the case of B8, the Kd is reported as 4.7 nM. For B9, the Kd was 2.7 nM. In the case of B10, the Kd is reported as 1.3 nM. B11 gave a Kd of 4 nM. B12 was tested, and the Kd was 1.5 nM. With B13 the Kd was 0.8 nM. In the case of B14, the Kd is reported as 5 nM. For B15, the Kd was 0.95 nM. B16 gave a Kd of 4.9 nM. B17 gave a Kd of 1.5 nM. In the case of B18, the Kd is reported as 2.4 nM. In the case of B19, the Kd is reported as 1.7 nM. B20 was tested, and the Kd was 2 nM. For B21, the Kd was 2 nM. B22 gave a Kd of 2 nM. For B23, the Kd was 0.98 nM. B24 was tested, and the Kd was 1.1 nM. With B25 the Kd was 14 nM. Binder B26 has a Kd of 2.2 nM. With B27 the Kd was 2.1 nM. B28 was tested, and the Kd was 1.8 nM. B29 gave a Kd of 1.5 nM. B30 gave a Kd of 2.3 nM. Work on B31 yielded a Kd of 7.2 nM. B32 gave a Kd of 5.8 nM. In the case of B33, the Kd is reported as 1.8 nM. B34 was tested, and the Kd was 0.95 nM. Work on B35 yielded a Kd of 1.9 nM. In the case of B36, the Kd is reported as 21 nM. With B37 the Kd was 2.1 nM. For B38, the Kd was 3 nM. With B39 the Kd was 1.3 nM. B40 showed a Kd of 3 nM. For B41, the Kd was 2.1 nM. B42 gave a Kd of 13 nM. Binder B43 has a Kd of 2.4 nM. B44 was tested, and the Kd was 1.4 nM. B45 showed a Kd of 1.7 nM.

— US20160159924A1 (Novo Nordisk, published 2016)
